Experimental data: article PMC7419741 (QRB Discovery, 2020)

Biological target: T1, IL8
T1 construct: interleukin 8 (CXCL8), ligand of CXCR2
Test: MST; 5 nM NT647-labelled receptor-Fc against a gradient of ligand; 1x PBS, 10 mM DTT, arginine at different concentrations; Monolith NT.115 pico, 25°C; data from the early T-Jump period; Kd model (law of mass action)
Details: both partners purified

Kd: 60.3 ± 21 nM
B1: CXCR2^QTY–Fc (Fc fusion)
chain: MEDFNMESDSFEDFWKGEDLSNYSYSSTLPPFLLDAAPCEPESLEINKYYTTTTYAQTYQQSQQGNSQTMQTTQYSRVGRSVTDTYQQNQAQADQQYAQTQPTWAASKVNGWIFGTFLCKTTSQQKETNYYSGTQQQACTSTDRYLAIVHATRTLTQKRYLVKYTCQSTWGQSQQQAQPTQQYRRTVYSSNVSPACYEDMGNNTANWRMQQRTQPQSYGYTTPQQTMQYCYGFTLRTLFKAHMGQKHRAMRTTYATTQTYQQCWQPYNQTQQADTLMRTQVIQETCERRNHIDRAQDATETQGTQHSCQNPQTYAFIGQKFRHGLLKILAIHGLISKDSLPKDSRPSFVGSSSGHTSTTL
modifications: NT647 fluorescent dye (Monolith NT protein labelling kit RED-NHS)
